# T1: human CD19 exon1-3-his protein (human, UniProt P15391 20-186, limits assumed)
# T1 construct: made in HEK293E cells; also called membrane-distal end; not shown: His tag
# T1 sequence (looked up): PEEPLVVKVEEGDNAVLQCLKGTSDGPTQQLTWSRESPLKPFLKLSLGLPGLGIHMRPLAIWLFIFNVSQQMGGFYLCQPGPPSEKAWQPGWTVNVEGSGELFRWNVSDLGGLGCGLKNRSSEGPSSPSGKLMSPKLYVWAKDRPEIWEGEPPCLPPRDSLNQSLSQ
# T2: murine CD19 protein (murine, UniProt P25918 17-287, limits assumed)
# T2 construct: bought protein; also called commercial murine CD19
# T2 sequence (looked up): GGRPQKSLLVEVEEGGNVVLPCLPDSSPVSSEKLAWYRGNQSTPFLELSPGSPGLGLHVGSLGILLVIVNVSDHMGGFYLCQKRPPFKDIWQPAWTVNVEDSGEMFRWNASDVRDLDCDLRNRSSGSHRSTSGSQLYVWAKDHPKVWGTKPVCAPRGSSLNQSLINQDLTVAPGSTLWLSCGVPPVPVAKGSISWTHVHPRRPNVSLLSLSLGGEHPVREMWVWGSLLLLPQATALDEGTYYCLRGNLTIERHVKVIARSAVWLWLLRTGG
# T3: Human CD19-his protein (human, UniProt P15391 20-291)
# T3 construct: bought protein; also called recombinant human CD19-His; CD19 full-length protein; not shown: His tag
# T3 sequence (looked up): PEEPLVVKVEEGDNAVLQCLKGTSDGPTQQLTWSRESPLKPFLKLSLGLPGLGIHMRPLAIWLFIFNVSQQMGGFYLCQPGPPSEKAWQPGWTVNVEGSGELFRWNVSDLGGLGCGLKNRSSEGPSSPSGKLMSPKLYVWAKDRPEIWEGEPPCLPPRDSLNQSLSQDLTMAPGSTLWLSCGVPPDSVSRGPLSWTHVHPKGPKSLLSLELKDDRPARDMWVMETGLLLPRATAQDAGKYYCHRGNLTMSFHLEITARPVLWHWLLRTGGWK
# T4: human CD19 on Raji cells (human, UniProt P15391 20-556)
# T4 construct: whole, on cells
# T4 sequence (looked up): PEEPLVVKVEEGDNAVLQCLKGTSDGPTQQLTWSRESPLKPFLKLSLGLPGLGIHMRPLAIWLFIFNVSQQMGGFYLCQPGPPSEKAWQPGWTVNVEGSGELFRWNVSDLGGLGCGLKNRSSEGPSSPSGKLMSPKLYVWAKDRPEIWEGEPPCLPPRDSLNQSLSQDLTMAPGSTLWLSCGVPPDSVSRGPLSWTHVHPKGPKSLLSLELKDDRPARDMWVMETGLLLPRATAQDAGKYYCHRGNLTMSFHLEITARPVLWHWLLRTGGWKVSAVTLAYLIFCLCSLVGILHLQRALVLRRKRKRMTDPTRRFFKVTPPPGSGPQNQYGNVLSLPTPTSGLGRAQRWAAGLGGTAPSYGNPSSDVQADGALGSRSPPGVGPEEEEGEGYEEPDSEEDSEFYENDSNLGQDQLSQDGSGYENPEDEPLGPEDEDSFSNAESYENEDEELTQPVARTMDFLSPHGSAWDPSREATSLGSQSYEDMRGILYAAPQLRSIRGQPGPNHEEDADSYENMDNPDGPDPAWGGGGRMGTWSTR
# T5: human CD19 on CHO-K1-human CD19 cells (human, UniProt P15391 20-556)
# T5 construct: whole, on cells; also called CHO-K1-human CD19-2C8
# T5 sequence (looked up): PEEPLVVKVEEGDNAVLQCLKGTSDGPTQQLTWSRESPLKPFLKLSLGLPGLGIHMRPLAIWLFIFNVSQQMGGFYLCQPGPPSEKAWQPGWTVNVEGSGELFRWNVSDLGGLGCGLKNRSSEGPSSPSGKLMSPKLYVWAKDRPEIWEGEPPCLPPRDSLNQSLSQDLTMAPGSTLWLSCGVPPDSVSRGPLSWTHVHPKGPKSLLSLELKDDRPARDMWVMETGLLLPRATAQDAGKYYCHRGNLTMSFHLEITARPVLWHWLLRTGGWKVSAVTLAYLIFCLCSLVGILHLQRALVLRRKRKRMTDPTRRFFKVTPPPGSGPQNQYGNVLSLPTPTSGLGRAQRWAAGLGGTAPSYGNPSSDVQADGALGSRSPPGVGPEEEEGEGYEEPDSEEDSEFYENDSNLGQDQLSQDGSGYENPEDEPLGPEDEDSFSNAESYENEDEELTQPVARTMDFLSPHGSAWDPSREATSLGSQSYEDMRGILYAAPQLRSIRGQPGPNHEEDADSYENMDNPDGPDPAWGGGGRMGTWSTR
# T6: human CD19 exon1-3-His tag protein (human, UniProt P15391 20-186, limits assumed)
# T6 construct: membrane-distal part of the extracellular region, made in HEK293E cells; not shown: His tag
# T6 sequence (looked up): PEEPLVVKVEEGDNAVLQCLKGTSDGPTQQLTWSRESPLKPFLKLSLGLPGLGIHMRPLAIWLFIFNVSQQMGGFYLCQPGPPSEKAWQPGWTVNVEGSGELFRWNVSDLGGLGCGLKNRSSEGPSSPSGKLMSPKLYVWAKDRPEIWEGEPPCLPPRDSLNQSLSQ
# How the values were obtained:
# [1] = molecular target: T1, human CD19 exon1-3-his protein; test: ELISA, coated at 2 ug/mL
# murine CD19 protein = molecular target: T2, murine CD19 protein; test: ELISA
# Method: Human CD19-his protein (purchased from ACROBiosystems, catalog number: CD9-H52H2) was diluted with PBS to a final concentration of 4 μg/mL, and then added to a 96-well ELISA plate at 100 μl/well. The plate was sealed with a plastic film and incubated overnight at 4° C., the plate was washed 2 times with PBS the next day, and then a blocking solution [PBS+2% (w/w) BSA] was added for blocking at room temperature for 2 h. The blocking solution was poured off, and 100 nM gradiently diluted CD19 chimeric antibody or control antibody was added at 50 μl/well. After incubation at 37° C. for 2 h, the plate was washed 3 times with PBS. […] TMB substrate was added at 50 μl/well, and incubated at room temperature for 10 min, and then a stop solution (1.0 N HCl) was added at 50 μl/well. The OD450 nm values were read by an ELISA microplate reader (Multimode Plate Reader, EnSight, purchased from Perkin Elmer).
# In order to detect the species cross-binding activity of the chimeric antibodies, an ELISA plate was coated with commercial murine CD19 (ACROBiosystems, catalog number: 50510-M08H) and monkey CD19 (ACROBiosystems, catalog number: 90051-C08H), respectively, and the ELISA detection was performed according to the method in example 5.1. […]
# Human CD19-his protein [2] = molecular target: T3, Human CD19-his protein; test: ELISA, coated human CD19-His
# human CD19 on Raji cells = molecular target: T4, human CD19 on Raji cells; test: FACS on Raji cells
# [3] = molecular target: T5, human CD19 on CHO-K1-human CD19 cells; test: FACS on CHO-K1-human CD19 cells
# Human CD19-his protein [4] = molecular target: T3, Human CD19-his protein; test: SPR Biacore, method of example 7.1, human CD19-His
# How it was run: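 Antibody captured on Protein A chip; recombinant human CD19-His injected for 240 s at 30 μl/min, five 1:1 dilutions from 200 nM, dissociation up to 600 s.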
# Human CD19-his protein [5] = molecular target: T3, Human CD19-his protein; test: ELISA on coated human CD19-His
# [6] = molecular target: T6, human CD19 exon1-3-His tag protein; test: ELISA, coated human CD19 exon 1-3-His
# Human CD19-his protein [7] = molecular target: T3, Human CD19-his protein; test: SPR Biacore, Ab captured on Protein A, CD19-His analyte
# How it was run: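 Antibodies were captured on a Protein A chip at 25 °C in HBS-EP+. Human CD19-His was injected for 240 s at 30 μl/min at 5 concentrations from 200 nM (1:1 dilutions), with dissociation up to 600 s. Data were double-referenced and fitted to a Langmuir 1:1 model for apparent KD.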
# [8] = molecular target: T6, human CD19 exon1-3-His tag protein; test: ELISA on coated human CD19 exon 1-3-His
binder,measurement,setting,value
"F3.121.4-L1H4 (antibody, mouse IgG1, kappa, murine IgG1 constant regions; also called humanized antibody of F3.121.4) heavy: EVQLQQSGAEVKKPGASVKVSCKASGYTFTNYWMHWVRQRPGQGLEWMGEIDPSDNYANYNQEFQGRVTITVDKSASTAYMELSSLRSEDTAVYYCARHDGYFGALDYWGQGTTVTVSSAKTTPPSVYPLAPGSAAQTNSMVTLGCLVKGYFPEPVTVTWNSGSLSSGVHTFPAVLQSDLYTLSSSVTVPSSTWPSETVTCNVAHPASSTKVDKKIVPRDCGCKPCICTVPEVSSVFIFPPKPKDVLTITLTPKVTCVVVDISKDDPEVQFSWFVDDVEVHTAQTQPREEQFNSTFRSVSELPIMHQDWLNGKEFKCRVNSAAFPAPIEKTISKTKGRPKAPQVYTIPPPKEQMAKDKVSLTCMITDFFPEDITVEWQWNGQPAENYKNTQPIMDTDGSYFVYSKLNVQKSNWEAGNTFTCSVLHEGLHNHHTEKSLSHSPGK light: EIVLTQSPATLSLSPGERATLSCSASSSISSNYLHWYQQKPGQAPRFLIYRTSNLASGIPARFSGSGSGTDFTLTISSLEPEDFAVYYCQQASSIPRMFTFGQGTKLEIKRADAAPTVSIFPPSSEQLTSGGASVVCFLNNFYPKDINVKWKIDGSERQNGVLNSWTDQDSKDSTYSMSSTLTLTKDEYERHNSYTCEATHKTSTSPIVKSFNRNEC",binding result,[1],no binding
same,binding result,murine CD19 protein,no binding
"F3.121.4-L1H1 (antibody, mouse IgG1, kappa, V domains shown, murine IgG1 constant regions; also called humanized antibody of F3.121.4) VH: EVQLVQSGAEVKKPGASVKVSCKASGYTFTNYWMHWVRQAPGQRLEWMGEIDPSDNYANYNQEFQGRVTITVDKSASTAYMELSSLRSEDTAVYYCARHDGYFGALDYWGQGTTVTVSS VL: EIVLTQSPATLSLSPGERATLSCSASSSISSNYLHWYQQKPGQAPRFLIYRTSNLASGIPARFSGSGSGTDFTLTISSLEPEDFAVYYCQQASSIPRMFTFGQGTKLEIKR",binding result,[1],no binding
same,binding result,murine CD19 protein,no binding
"F3.121.4-L2H1 (antibody, mouse IgG1, kappa, V domains shown, murine IgG1 constant regions; also called humanized antibody of F3.121.4) VH: EVQLVQSGAEVKKPGASVKVSCKASGYTFTNYWMHWVRQAPGQRLEWMGEIDPSDNYANYNQEFQGRVTITVDKSASTAYMELSSLRSEDTAVYYCARHDGYFGALDYWGQGTTVTVSS VL: EIVLTQSPDFQSVTPKEKVTITCSASSSISSNYLHWYQQKPDQSPKLLIKRTSNLASGVPSRFSGSGSGTDFTLTINSLEAEDAATYYCQQASSIPRMFTFGQGTKLEIKR",binding result,[1],no binding
same,binding result,murine CD19 protein,no binding
"F3.121.4 (antibody, human IgG1, V domains shown, human-murine chimeric antibody, human IgG1 constant; also called chimeric antibody F3.121.4) VH: QVQLQQPGAELVVPGTSVKLSCKASGYTFTNYWMHWVKQRPGQGLEWIGEIDPSDNYANYNQEFQGKATLTVDKSSSTAYMQLSSLTSDDSAVYYCARHDGYFGALDYWGQGTSVTVSS VL: EIVLTQSPTTMAASPGEKITITCSASSSISSNYLHWYQQKPGFSPKFLIYRTSNLASGVPARFSGSGSGTSYSLTIGTMEAEDVATYYCQQASSIPRMFTFGSGTKLEIK",OD450 at 0.0001 nM,Human CD19-his protein [2],0.05 OD450
same,OD450 at 0.001 nM,Human CD19-his protein [2],0.06 OD450
same,OD450 at 0.01 nM,Human CD19-his protein [2],0.11 OD450
same,OD450 at 0.10 nM,Human CD19-his protein [2],0.5 OD450
same,OD450 at 1.00 nM,Human CD19-his protein [2],0.88 OD450
same,OD450 at 10 nM,Human CD19-his protein [2],1.04 OD450
same,OD450 at 100 nM,Human CD19-his protein [2],0.82 OD450
same,EC50,human CD19 on Raji cells,0.31 nM
same,Maximum mean fluorescence intensity,human CD19 on Raji cells,32900 MFI
same,EC50,[3],0.3 nM
same,Maximum mean fluorescence intensity,[3],53700 MFI
same,Kd,Human CD19-his protein [4],1.15 nM
same,koff,Human CD19-his protein [4],0.000375 s⁻¹
same,kon,Human CD19-his protein [4],327000 M⁻¹ s⁻¹
same,EC50 (read off the curve),Human CD19-his protein [5],~0.1 nM
same,OD450 at 0.0001 nM,[6],0.05 OD450
same,OD450 at 0.001 nM,[6],0.05 OD450
same,OD450 at 0.01 nM,[6],0.05 OD450
same,OD450 at 0.10 nM,[6],0.05 OD450
same,OD450 at 1.00 nM,[6],0.05 OD450
same,OD450 at 10 nM,[6],0.05 OD450
same,OD450 at 100 nM,[6],0.07 OD450
same,Kd,Human CD19-his protein [7],1.15 nM
same,koff,Human CD19-his protein [7],0.000375 s⁻¹
same,kon,Human CD19-his protein [7],327000 M⁻¹ s⁻¹
same,binding result,[8],no binding (tested: 100 nM)
